Data as given in patent EP4775675A1 (Shanghai Hongcheng Biopharmaceutical Co., Ltd., dated 2026).
Like-named read-outs stand apart in the source and are kept apart here.

Key:
[1] = biological target: T1, human BDCA-2 on cells (Jurkat-hBDCA-2 cells; human pDCs; human PBMCs) (human, UniProt Q8WTT0 1-213); assay: cell-based or functional assay
T1 sequence (looked up): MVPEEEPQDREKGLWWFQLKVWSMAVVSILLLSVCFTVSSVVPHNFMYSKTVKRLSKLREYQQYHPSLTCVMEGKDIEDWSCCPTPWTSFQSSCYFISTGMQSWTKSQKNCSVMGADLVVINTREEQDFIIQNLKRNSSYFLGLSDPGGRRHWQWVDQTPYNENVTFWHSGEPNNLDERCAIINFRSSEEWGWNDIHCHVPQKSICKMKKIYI

[2] = biological target: T1, human BDCA-2 on cells (Jurkat-hBDCA-2 …); assay: cell-based or functional assay; remark: listed apart in the source
[3] = biological target: T1, human BDCA-2 on cells (Jurkat-hBDCA-2 …); assay: cell-based or functional assay; remark: listed apart in the source
[4] = biological target: T1, human BDCA-2 on cells (Jurkat-hBDCA-2 …); assay: cell-based or functional assay; remark: listed apart in the source
[5] = biological target: T1, human BDCA-2 on cells (Jurkat-hBDCA-2 …); assay: cell-based or functional assay; remark: listed apart in the source
[6] = biological target: T1, human BDCA-2 on cells (Jurkat-hBDCA-2 …); assay: cell-based or functional assay; remark: listed apart in the source
[7] = biological target: T1, human BDCA-2 on cells (Jurkat-hBDCA-2 …); assay: cell-based or functional assay; remark: listed apart in the source
[8] = biological target: T1, human BDCA-2 on cells (Jurkat-hBDCA-2 …); assay: flow cytometry on sorted human pDCs
[9] = biological target: T1, human BDCA-2 on cells (Jurkat-hBDCA-2 …); assay: flow cytometry on Jurkat-hBDCA-2 cells
[10] = biological target: T1, human BDCA-2 on cells (Jurkat-hBDCA-2 …); assay: flow cytometry on Jurkat-hBDCA-2 cells; remark: listed apart in the source
[11] = biological target: T1, human BDCA-2 on cells (Jurkat-hBDCA-2 …); assay: flow cytometry on Jurkat-hBDCA-2 cells; remark: listed apart in the source
[12] = biological target: T2, Human BDCA-2 protein (soluble, Octet analyte) (human, UniProt Q8WTT0 45-213, limits assumed); assay: BLI (Octet Red96e), antibody on anti-human IgG sensor, human BDCA-2 protein in solution
T2 construct: Soluble protein used as analyte in BLI
T2 sequence (looked up): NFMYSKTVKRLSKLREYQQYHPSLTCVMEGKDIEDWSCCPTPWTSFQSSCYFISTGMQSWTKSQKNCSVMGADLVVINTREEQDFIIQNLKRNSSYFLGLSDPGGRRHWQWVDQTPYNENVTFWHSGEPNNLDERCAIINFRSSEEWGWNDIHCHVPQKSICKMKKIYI

[13] = biological target: T2, Human BDCA-2 protein (soluble, Octet …); assay: as above; remark: listed apart in the source
[14] = biological target: human FcγRIIIa (158V) on Jurkat-human FcγRIIIa (158V)-NFAT cells (human, UniProt P08637 17-254); assay: cell-based or functional assay
human CLEC4A = biological target: T3, human CLEC4A (human, UniProt Q9UMR7 70-237, limits assumed); assay: ELISA, coated protein 1 µg/ml
T3 sequence (looked up): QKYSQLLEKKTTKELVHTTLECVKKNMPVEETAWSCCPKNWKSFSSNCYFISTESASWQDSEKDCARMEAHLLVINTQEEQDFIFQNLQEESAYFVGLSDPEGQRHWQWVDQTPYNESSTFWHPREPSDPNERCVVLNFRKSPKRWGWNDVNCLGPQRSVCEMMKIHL

human CLEC4E = biological target: T4, human CLEC4E (human, UniProt Q9ULY5 41-219, limits assumed); assay: ELISA, coated protein 1 µg/ml
T4 sequence (looked up): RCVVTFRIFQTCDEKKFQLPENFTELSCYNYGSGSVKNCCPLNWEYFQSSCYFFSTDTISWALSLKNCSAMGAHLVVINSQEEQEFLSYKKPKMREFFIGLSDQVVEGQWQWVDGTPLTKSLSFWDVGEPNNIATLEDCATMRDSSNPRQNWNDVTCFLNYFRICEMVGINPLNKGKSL

human CLEC4D = biological target: T5, human CLEC4D (human, UniProt Q8WXI8 39-215, limits assumed); assay: ELISA, coated protein 1 µg/ml
T5 sequence (looked up): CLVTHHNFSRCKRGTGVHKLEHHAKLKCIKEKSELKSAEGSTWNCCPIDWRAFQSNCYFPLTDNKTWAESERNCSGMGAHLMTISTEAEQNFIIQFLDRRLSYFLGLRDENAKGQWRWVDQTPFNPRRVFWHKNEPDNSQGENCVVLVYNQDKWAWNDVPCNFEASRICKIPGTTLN

human CLEC6A = biological target: T6, human CLEC6A (human, UniProt Q6EIG7 42-209, limits assumed); assay: ELISA, coated protein 1 µg/ml
T6 sequence (looked up): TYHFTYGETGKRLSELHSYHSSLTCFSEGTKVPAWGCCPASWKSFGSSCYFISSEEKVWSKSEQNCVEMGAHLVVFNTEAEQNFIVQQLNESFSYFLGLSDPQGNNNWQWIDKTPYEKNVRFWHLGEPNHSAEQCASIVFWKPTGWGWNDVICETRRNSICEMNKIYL

[15] = biological target: T7, cynomolgus monkey BDCA-2 on cells (Jurkat-cynoBDCA-2 cells; cynomolgus monkey pDCs) (cynomolgus monkey, UniProt A0A2K5UWP4 1-212); assay: flow cytometry on Jurkat-cynoBDCA-2 cells
T7 construct: whole, on cells
T7 sequence: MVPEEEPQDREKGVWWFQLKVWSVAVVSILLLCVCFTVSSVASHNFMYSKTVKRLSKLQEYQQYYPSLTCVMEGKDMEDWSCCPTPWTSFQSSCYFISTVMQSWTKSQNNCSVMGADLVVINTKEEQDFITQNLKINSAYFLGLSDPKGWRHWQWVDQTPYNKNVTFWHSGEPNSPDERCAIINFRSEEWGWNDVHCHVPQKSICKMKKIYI

[16] = biological target: T8, cynomolgus monkey BDCA-2 protein (acro, CLC-C52H4) (cynomolgus monkey, UniProt A0A2K5UWP4 45-212); assay: BLI (Octet Red96e), antibody on anti-human IgG sensor, cynomolgus monkey BDCA-2 protein in solution
T8 construct: Bought soluble protein; also called cyno BDCA-2
T8 sequence: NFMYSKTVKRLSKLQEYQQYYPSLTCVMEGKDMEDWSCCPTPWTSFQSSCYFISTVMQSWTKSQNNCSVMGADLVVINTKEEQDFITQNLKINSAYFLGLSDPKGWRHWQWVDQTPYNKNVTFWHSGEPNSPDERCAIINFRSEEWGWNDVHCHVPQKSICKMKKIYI

[17] = biological target: T7, cynomolgus monkey BDCA-2 on cells …; assay: flow cytometry on Jurkat-cynoBDCA-2 cells; remark: listed apart in the source

Chain of human FcγRIIIa (158V) on Jurkat-human FcγRIIIa (158V)-NFAT cells (P08637 17-254 F176V): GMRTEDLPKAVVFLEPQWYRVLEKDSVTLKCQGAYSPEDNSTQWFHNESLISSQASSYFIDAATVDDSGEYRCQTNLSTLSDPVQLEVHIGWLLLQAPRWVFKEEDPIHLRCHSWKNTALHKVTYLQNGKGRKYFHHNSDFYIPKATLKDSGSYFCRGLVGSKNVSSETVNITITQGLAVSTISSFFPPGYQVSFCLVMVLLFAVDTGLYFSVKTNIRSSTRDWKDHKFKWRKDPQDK

B1: BIIB059 (antibody)
chain 1: not shown
chain 2: DIQLTQSPSSLSASVGDRVTITCKASQSVDYDGDSYMNWYQQKPGKAPKLLIYAASTLESGVPSRFSGSGSGTDFTLTISSLQPEDFATYYCQQANEDPRTFGQGTKVEIKRTVAAPSVFIFPPSDEQLKSGTASVVCLLNNFYPREAKVQWKVDNALQSGNSQESVTEQDSKDSTYSLSSTLTLSKADYEKHKVYACEVTHQGLSSPVTKSFNRGEC
- EC50, inhibition of CpGA-induced type I interferon (IFNα) production in human PBMC cells [1]: 0.0132 µg/mL
- EC50, inhibition of CpGA-induced type I interferon (IFNα) production in human PBMC cells [2]: 0.0031 µg/mL
- EC50, inhibition of CpGA-induced type I interferon (IFNα) production in human PBMC cells [3]: 0.0025 µg/mL
- EC50, inhibition of immune complex-induced type I interferon (IFNα) in human pDC cells [4]: 33.4 ng/mL
- EC50, inhibition of immune complex-induced type I interferon (IFNα) in human pDC cells [5]: 6.1 ng/mL
- EC50, inhibition of CpGA-induced type I interferon (IFNα) production in human PBMC cells [6]: 0.0021 µg/mL
- EC50, inhibition of immune complex-induced type I interferon (IFNα) production by human pDC cells [7]: 2.1 ng/mL
- EC50 [8]: 0.281 µg/mL
- EC50 [9]: 0.224 µg/mL
- EC50 [10]: 0.175 µg/mL
- EC50 [11]: 0.0704 µg/mL
- Kd [12]: 1.9 nM
- Kd [13]: 3.9 nM

B2: 17G6A2_hzH1L7_hIgG1 (antibody)
heavy: not shown
light: DIVLTQSPASLAVSPGQRATITCRASESVSFHGTHLMHWYQQKPGQPPKLLIYAASNLESGVPARFSGSGSETDFTLTINPVEAEDTANYYCQQSIEDPPTFGGGTKVEIKRTVAAPSVFIFPPSDEQLKSGTASVVCLLNNFYPREAKVQWKVDNALQSGNSQESVTEQDSKDSTYSLSSTLTLSKADYEKHKVYACEVTHQGLSSPVTKSFNRGEC
notes: Humanized, human IgG1/kappa (hzVH01 + hzVL07)
- EC50, inhibition of CpGA-induced type I interferon (IFNα) production in human PBMC cells [6]: 0.0011 µg/mL
- EC50, inhibition of immune complex-induced type I interferon (IFNα) production by human pDC cells [7]: 1 ng/mL
- EC50, activation of Jurkat-human FcγR IIIa (158V)-NFAT cell line with Jurkat-hBDCA-2 target cells [14]: 0.005 µg/mL
- binding result (human CLEC4A): no binding (tested: 10 µg/ml)
- binding result (human CLEC4E): no binding (tested: 10 µg/ml)
- binding result (human CLEC4D): no binding (tested: 10 µg/ml)
- binding result (human CLEC6A): no binding (tested: 10 µg/ml)
- EC50 [11]: 0.0595 µg/mL
- EC50 [15]: 0.0944 µg/mL
- Kd [13]: 2.9 nM
- koff [13]: 0.000523 s⁻¹
- kon [13]: 179000 M⁻¹ s⁻¹
- Kd [16]: 4.8 nM
- koff [16]: 0.00064 s⁻¹
- kon [16]: 130000 M⁻¹ s⁻¹

B3: 164C11B8 (murine hybridoma monoclonal antibody) (antibody, V domains shown)
VH: DVILVESGGGLVKPGGSLKLSCAASGITFSTYTMSWLRQTPEKRLEWVATINSGGDNTYYPDSVKGRFTISRDNAKNNLYLQMSSLKSEDTALYYCATYRPYYYGSVLDYWGQGTTLTVSS
VL: DIVLTQSPASLAVSLGQRATISCKASQSVDYDGNSYVNWYQQKPGQPPKLLIYGASNLESGIPDRFSGSGSGTDFTLNIHPVEEEDGATYYCQQSDEDPWTFGGGTKLEIR
notes: Mouse antibody from hybridoma; also called hybridoma 164C11B8; hybridoma antibody 164C11B8
- EC50, inhibition of CpGA-induced type I interferon (IFNα) production in human PBMC cells [2]: 0.002 µg/mL
- EC50 [9]: 0.189 µg/mL
- EC50 [17]: 0.233 µg/mL
